Reference: PMC6379665 (Nucleic Acids Research, 2018)
Residue numbers refer to the chain shown, from its start.

T1: bacteriophage λ terminase large subunit TerL^λ-E179A (bacteriophage λ, UniProt P03708 1-641, E179A)
T1 sequence (looked up): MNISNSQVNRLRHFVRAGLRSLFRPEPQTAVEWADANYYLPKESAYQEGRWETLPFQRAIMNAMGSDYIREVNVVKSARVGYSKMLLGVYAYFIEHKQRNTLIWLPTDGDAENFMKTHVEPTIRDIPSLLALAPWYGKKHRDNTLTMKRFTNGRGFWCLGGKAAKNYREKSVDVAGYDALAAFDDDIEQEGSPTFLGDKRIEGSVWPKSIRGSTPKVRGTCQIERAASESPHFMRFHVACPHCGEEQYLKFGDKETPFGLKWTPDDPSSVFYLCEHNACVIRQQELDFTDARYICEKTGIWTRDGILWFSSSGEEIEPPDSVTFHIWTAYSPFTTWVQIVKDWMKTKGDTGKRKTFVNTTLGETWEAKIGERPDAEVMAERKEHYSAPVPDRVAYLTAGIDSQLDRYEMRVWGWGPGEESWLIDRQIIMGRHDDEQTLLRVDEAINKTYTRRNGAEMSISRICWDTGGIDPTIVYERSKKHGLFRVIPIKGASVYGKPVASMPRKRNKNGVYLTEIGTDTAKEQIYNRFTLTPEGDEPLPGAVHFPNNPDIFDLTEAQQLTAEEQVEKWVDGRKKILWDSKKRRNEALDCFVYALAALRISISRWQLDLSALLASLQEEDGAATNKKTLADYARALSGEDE

T2: bacteriophage λ terminase large subunit TerL^λ, wild type (bacteriophage λ, UniProt P03708 1-641)
T2 sequence (looked up): T1 sequence (looked up) with A179E

T3: bacteriophage λ terminase large subunit TerL^λ-E179Q (bacteriophage λ, UniProt P03708 1-641, E179Q)
T3 sequence (looked up): T1 sequence (looked up) with A179Q

B1: bacteriophage λ terminase small subunit TerS (natural protein, UniProt P03707 1-181, looked up)
chain: MEVNKKQLADIFGASIRTIQNWQEQGMPVLRGGGKGNEVLYDSAAVIKWYAERDAEIENEKLRREVEELRQASEADLQPGTIEYERHRLTRAQADAQELKNARDSAEVVETAFCTFVLSRIAGEIASILDGLPLSVQRRFPELENRHVDFLKRDIIKAMNKAAALDELIPGLLSEYIEQSG

What was measured:
Assay in all cases: AUC
[1] = biological target: bacteriophage λ terminase protomer (TerL•TerS2), wild type (bacteriophage λ) (UniProt P03708)
[2] = biological target: T1, bacteriophage λ terminase large subunit …
[3] = biological target: T2, bacteriophage λ terminase large subunit …
[4] = biological target: T3, bacteriophage λ terminase large subunit …

Molecule	stoichiometry N [1]	binding result [2]	binding result [3]	binding result [4]
bacteriophage λ terminase protomer (TerL•TerS2), wild type (from UniProt P03708 1-641; P03707 1-181) (complex)	4			
B1		binds	binds	binds
